{
  "source": "patent US20140087995A1",
  "about": "(published 2014)",
  "key": {"rat calcitonin receptor [1]": {"biological_target": "T1, rat calcitonin receptor (rat, UniProt P32214 25-516)", "T1 construct": "whole, on cells; Used as membranes prepared from the transfected cells; also called rCTR; rat calcitonin (a) receptor", "T1 sequence (looked up)": "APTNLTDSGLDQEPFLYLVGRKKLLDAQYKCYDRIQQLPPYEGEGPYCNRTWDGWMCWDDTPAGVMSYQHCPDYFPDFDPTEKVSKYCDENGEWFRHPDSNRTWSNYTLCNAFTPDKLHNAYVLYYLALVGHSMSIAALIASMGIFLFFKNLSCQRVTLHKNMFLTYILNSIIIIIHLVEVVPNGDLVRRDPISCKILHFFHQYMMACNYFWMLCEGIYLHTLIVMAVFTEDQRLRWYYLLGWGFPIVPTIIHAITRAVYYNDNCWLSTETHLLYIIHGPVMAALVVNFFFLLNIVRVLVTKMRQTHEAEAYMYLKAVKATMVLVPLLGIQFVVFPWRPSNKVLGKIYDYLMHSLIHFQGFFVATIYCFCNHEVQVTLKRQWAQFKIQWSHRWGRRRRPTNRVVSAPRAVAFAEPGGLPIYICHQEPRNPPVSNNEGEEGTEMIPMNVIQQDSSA", "assay": "ratio IC50 rat calcitonin receptor / IC50 rat amylin receptor (Assays VIII and VI)"}, "[2]": {"biological_target": "T2, human calcitonin receptor (human, UniProt P30988 25-474)", "T2 construct": "whole, on cells; Used as membranes prepared from the transfected cells (Assay VII); also called hCTR; hCT", "T2 sequence (looked up)": "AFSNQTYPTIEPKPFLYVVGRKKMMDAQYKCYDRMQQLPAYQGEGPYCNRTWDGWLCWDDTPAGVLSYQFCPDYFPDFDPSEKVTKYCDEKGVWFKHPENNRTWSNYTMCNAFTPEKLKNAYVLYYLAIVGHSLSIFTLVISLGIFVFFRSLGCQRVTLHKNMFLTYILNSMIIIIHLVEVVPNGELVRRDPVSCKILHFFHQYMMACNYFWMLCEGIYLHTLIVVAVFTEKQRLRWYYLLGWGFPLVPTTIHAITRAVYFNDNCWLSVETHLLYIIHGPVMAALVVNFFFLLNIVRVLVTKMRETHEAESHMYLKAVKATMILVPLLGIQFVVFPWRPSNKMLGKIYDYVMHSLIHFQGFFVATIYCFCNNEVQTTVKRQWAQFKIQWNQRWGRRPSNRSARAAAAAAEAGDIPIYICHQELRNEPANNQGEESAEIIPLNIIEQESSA", "assay": "ratio IC50 human calcitonin receptor / IC50 human amylin receptor (Assays VII and V)", "procedure": "The resulting pellet was resuspended, homogenized and centrifuged (20.000 rpm, 15 min) in a buffer containing 20 mM Na-HEPES and 0.1 mM EDTA (pH 7.4, buffer 2). The resulting pellet was resuspended in buffer 2 and protein concentration was measured (BCA protein Assay, Pierce). The homogenate was kept cold during the whole procedure. The membranes were kept at −80° C. until use. The assay was performed in a 384 well Optiplate (PerkinElmer) in a total volume of 40 ul. Membranes were mixed with SPA beads. Final concentration of membranes 35 ng/μL final and SPA beads was 0.05 mg/well. Test-compounds were dissolved in DMSO and further diluted in assay buffer (50 mM Hepes, pH 7.4, 1 mM CaCl2, 5 mM MgCl₂, 0.1% OA and 0.02% Tween20). […] The final mixture was incubated with shaking at 400 rpm for 120 min at 25° C. prior to centrifugation (1500 rpm, 10 min). Samples were analyzed on TopCounter™ (Packard). The IC₅₀ was calculated using (one site binding competition analysis) GraphPad Prism5 as a measure of receptor affinity.\nMembranes were prepared in the following way; the cells were rinsed with PBS and incubated with Versene for approximately 5 min before harvesting. The cells were flushed with PBS and the cell-suspension was centrifuged for 5 min at 1000 rpm. Cells were homogenized (Ultrathurrax) in a buffer containing 20 mM Na-HEPES and 10 mM EDTA (pH 7.4) and centrifuged at 20.000 rpm for 15 min. The resulting pellet was resuspended, homogenized and centrifuged (20.000 rpm, 15 min) in a buffer containing 20 mM Na-HEPES and 0.1 mM EDTA (pH 7.4, buffer 2). The resulting pellet was resuspended in buffer 2 and protein concentration was measured (BCA protein Assay, Pierce). The homogenate was kept cold during the whole procedure. The membranes were kept at −80° C. until use. Assay was performed in a 384 well Optiplate (PerkinElmer) in a total volume of 40 ul. Membranes were mixed with SPA beads."}, "rat calcitonin receptor [3]": {"biological_target": "T1, rat calcitonin receptor", "assay": "SPA competition with 125I-calcitonin, membranes of BHK cells with rat calcitonin receptor (Assay VIII)"}, "[4]": {"biological_target": "T3, rat amylin receptor (rat calcitonin receptor + rat RAMP 3) (rat, UniProt P32214 25-516; Q9JJ73 23-147)", "T3 construct": "whole, on cells; Used as membranes prepared from the transfected cells; also called rAmylin-R; rat amylin 3(a) receptor", "T3 sequence (looked up) 1": "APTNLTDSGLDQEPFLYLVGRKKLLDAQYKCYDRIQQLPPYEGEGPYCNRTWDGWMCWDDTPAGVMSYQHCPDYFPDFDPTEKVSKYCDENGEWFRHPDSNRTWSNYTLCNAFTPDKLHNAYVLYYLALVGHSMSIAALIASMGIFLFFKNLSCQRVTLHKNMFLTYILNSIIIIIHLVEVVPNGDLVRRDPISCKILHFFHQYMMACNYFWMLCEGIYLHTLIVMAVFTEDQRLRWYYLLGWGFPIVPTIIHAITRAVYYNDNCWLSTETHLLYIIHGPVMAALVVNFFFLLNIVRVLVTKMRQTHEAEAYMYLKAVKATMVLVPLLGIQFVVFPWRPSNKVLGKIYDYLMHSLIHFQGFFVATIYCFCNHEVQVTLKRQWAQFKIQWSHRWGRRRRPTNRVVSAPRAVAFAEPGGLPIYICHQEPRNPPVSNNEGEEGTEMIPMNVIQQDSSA", "T3 sequence (looked up) 2": "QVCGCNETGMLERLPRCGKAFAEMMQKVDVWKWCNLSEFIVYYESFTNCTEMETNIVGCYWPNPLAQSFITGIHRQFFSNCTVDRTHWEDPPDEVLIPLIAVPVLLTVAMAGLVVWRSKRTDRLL", "assay": "SPA competition with 125I-rat amylin, membranes of BHK cells with rat calcitonin receptor + rat RAMP3 (Assay VI)"}},
  "note": "Numbered stars: 1 amine (or outer) side, 2 acyl side, 3 side chain; on linkers, the order of the positions; unused ones are H or OH. Bridge positions count the residues as written; N and C are the ends. * marks the point of attachment. C20 diacid = O=C(O)CCCCCCCCCCCCCCCCCCC(=O)*; γGlu = O=C(O)[C@H](CCC(=O)[*:2])N[*:1]; AEEA = NCCOCCOCC(=O)O",
  "data": [
    {"binder": "KCNTATCATQRLAEFLRHSSPNFGAIPSSTNVGSNTY (C20 diacid-gGlu-2xOEG acylated on the alpha amino group of the N-terminal residue (Lys 1); disulfide Cys2-Cys7; C-terminal amide, Derivative of human amylin; also called compound 19)", "values": [
      {"measurement": "Ratio rCT/rAmylin binding", "setting": "rat calcitonin receptor [1]", "result": 93.6},
      {"measurement": "Ratio hCT/hAmylin binding", "setting": "[2]", "result": 36.7},
      {"measurement": "IC50", "setting": "rat calcitonin receptor [3]", "result": 95.6, "unit": "nM"},
      {"measurement": "IC50", "setting": "[4]", "result": 1.02, "unit": "nM"}
    ]},
    {"binder": "KCNTATCATQRLANFLRHSSPNFGAIPSSTNVGSNTY (C20 diacid-gGlu-2xOEG acylated on the alpha amino group of the N-terminal residue (Lys 1); disulfide Cys2-Cys7; C-terminal amide, Derivative of human amylin; also called compound 24)", "values": [
      {"measurement": "Ratio rCT/rAmylin binding", "setting": "rat calcitonin receptor [1]", "result": 116},
      {"measurement": "Ratio hCT/hAmylin binding", "setting": "[2]", "result": 90},
      {"measurement": "IC50", "setting": "rat calcitonin receptor [3]", "result": 350, "unit": "nM"},
      {"measurement": "IC50", "setting": "[4]", "result": 3.01, "unit": "nM"}
    ]},
    {"binder": "{C20 diacid-γGlu-AEEA-AEEA}-KCNTATCATQRLAEFLRHSSPNFGAIPSSTNVGSNTP-NH2 (disulfide 2-7; SMILES CC[C@H](C)[C@H](NC(=O)[C@H](C)NC(=O)CNC(=O)[C@H](Cc1ccccc1)NC(=O)[C@H](CC(N)=O)NC(=O)[C@@H]1CCCN1C(=O)[C@H](CO)NC(=O)[C@H](CO)NC(=O)[C@H](Cc1c[nH]cn1)NC(=O)[C@H](CCCNC(=N)N)NC(=O)[C@H](CC(C)C)NC(=O)[C@H](Cc1ccccc1)NC(=O)[C@H](CCC(=O)O)NC(=O)[C@H](C)NC(=O)[C@H](CC(C)C)NC(=O)[C@H](CCCNC(=N)N)NC(=O)[C@H](CCC(N)=O)NC(=O)[C@@H](NC(=O)[C@H](C)NC(=O)[C@@H]1CSSC[C@H](NC(=O)[C@H](CCCCN)NC(=O)COCCOCCNC(=O)COCCOCCNC(=O)CC[C@H](NC(=O)CCCCCCCCCCCCCCCCCCC(=O)O)C(=O)O)C(=O)N[C@@H](CC(N)=O)C(=O)N[C@@H]([C@@H](C)O)C(=O)N[C@@H](C)C(=O)N[C@@H]([C@@H](C)O)C(=O)N1)[C@@H](C)O)C(=O)N1CCC[C@H]1C(=O)N[C@@H](CO)C(=O)N[C@@H](CO)C(=O)N[C@H](C(=O)N[C@@H](CC(N)=O)C(=O)N[C@H](C(=O)NCC(=O)N[C@@H](CO)C(=O)N[C@@H](CC(N)=O)C(=O)N[C@H](C(=O)N1CCC[C@H]1C(N)=O)[C@@H](C)O)C(C)C)[C@@H](C)O, Derivative of human amylin; also called compound 20)", "values": [
      {"measurement": "Ratio rCT/rAmylin binding", "setting": "rat calcitonin receptor [1]", "result": 6.4},
      {"measurement": "Ratio hCT/hAmylin binding", "setting": "[2]", "result": 3.6},
      {"measurement": "IC50", "setting": "rat calcitonin receptor [3]", "result": 4.43, "unit": "nM"},
      {"measurement": "IC50", "setting": "[4]", "result": 0.696, "unit": "nM"}
    ]},
    {"binder": "KCNTATCATQRLANFLRHSSPNFGAIPSSTNVGRNTY (C20 diacid-gGlu acylated on the alpha amino group of the N-terminal residue (Lys 1); disulfide Cys2-Cys7; C-terminal amide, Derivative of human amylin; also called compound 39)", "note": "[N^α1-[(4S)-4-carboxy-4-(19-carboxynonadecanoylamino)butanoyl]-[Arg17,Pro21,Pro27,Arg34]-h-amylin]", "values": [
      {"measurement": "Ratio rCT/rAmylin binding", "setting": "rat calcitonin receptor [1]", "result": 54.5},
      {"measurement": "Ratio hCT/hAmylin binding", "setting": "[2]", "result": 29},
      {"measurement": "IC50", "setting": "rat calcitonin receptor [3]", "result": 96.4, "unit": "nM"},
      {"measurement": "IC50", "setting": "[4]", "result": 1.77, "unit": "nM"}
    ]}
  ]
}
